# Source: PMC12207404, “Significance of the CTP-binding motif for the interactions of S. coelicolor ParB with DNA, chromosome segregation, and sporogenic hyphal growth” (Nucleic Acids Research, 2025)
# B1: ScParB^R142A, purified recombinant (natural protein)
# chain: MSERRRGLGRGLGALIPNAPTEKSVASAALGSAASAAPGAMPLLPNERGVAAAKVATLQHVSRETEELTAPQGVEGLRPPMGAHFAEVPLDAITPNPKQPRKDFDDDALAELVTSIREVGLLQPVVVRPTEPGRYELIMGEARFRACRELELDAIPAIVRATEDEKLLLDALLENLHRAQLNPLEEAFAYDQLLKDFNCTHDQLADRIGRSRPQVSNTLRLLKLSPKVQNRVAAGVLSAGHARALLSVDDPEEQDRLAHRIVAEGLSVRSVEEIVTLMGSRPQKPQRAKGPRAGSLVSPALSDLATRLSDRFETRVKVDLGQKKGKITVEFASMDDLERILGSLAPGEGPVLQKGLLEGEDEDGDAES
# notes: source: E. coli BL21 (DE) pLysS, purified (Glutathione Sepharose 4B, cleaved with PreScission protease); not shown: GST, N-terminal, cleaved
# B2: ScParB^R142A, bacterial two-hybrid fusion (natural protein)
# chain: B1 chain
# notes: also called R142A-substituted variant; source: bacterial two-hybrid fusion (pUT18C and pKT25 derivatives), in E. coli BTH101
# Assays:
# [1] = test system: ScParB (Streptomyces coelicolor); assay: BLI; details: no CTP, BLI: 100 mM Tris-HCl pH 8.0, 100 mM NaCl, 1 mM MgCl2, 0.005% Tween 20, 30 C, EMSA: 100 mM Tris-HCl pH 8.0, 100 mM NaCl, 10% glycerol, 1 mM DTT, 1 mM EDTA …
# [2] = molecular target: T1, ScParB (S. coelicolor ParB) (Streptomyces coelicolor, UniProt Q9RFM2); assay: TNP-CTP fluorescence enhancement at […] nm; format: binding; details: 1 μM protein, 5 μM TNP-CTP, no DNA, 1 mM MgCl2, pH 8.0, room temperature; labelled compound
# T1 construct: full-length; N-terminal GST fusion from pGEX-6P-1_parB, GST removed with PreScission protease; expressed in E. coli BL21 pLysS; dimer
# T1 sequence (Q9RFM2 entry or part of it): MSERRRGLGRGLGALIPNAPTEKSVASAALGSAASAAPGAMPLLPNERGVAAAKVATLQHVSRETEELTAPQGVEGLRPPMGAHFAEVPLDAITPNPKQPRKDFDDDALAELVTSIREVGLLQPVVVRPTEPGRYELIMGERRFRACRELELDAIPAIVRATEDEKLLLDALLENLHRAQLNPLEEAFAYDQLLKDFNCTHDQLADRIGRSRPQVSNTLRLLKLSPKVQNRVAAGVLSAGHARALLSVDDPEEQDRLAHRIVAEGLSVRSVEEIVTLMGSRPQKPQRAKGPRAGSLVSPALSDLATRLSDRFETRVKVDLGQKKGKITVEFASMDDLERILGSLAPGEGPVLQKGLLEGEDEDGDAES
# [3] = molecular target: the molecule itself; assay: cross-linking; glutaraldehyde (0.03%, 0.06% or 0.12%), 4 μM ScParB variant, 100 mM Tris-HCl pH 8.0, 100 mM NaCl, 1 mM MgCl2, 0.005% Tween 20, 30°C, 30 min; optionally 4 mM CTP or 4 μM 34-bp parS dsDNA; SDS-PAGE, Coomassie, percent of dimer and HMW complex of the lane's total signal
# [4] = molecular target: the molecule itself; assay: two-hybrid; bacterial two-hybrid (BACTH): pUT18C and pKT25 derivatives cotransformed into E. coli BTH101; blue colonies on LB agar with X-gal and 0.5 mM IPTG, 30°C, and β-galactosidase activity (Miller units)
molecule,measurement,setting,value
"300-bp parS, two-end biotin",Kd,[1]; Discussion prints 176,167 nM
"Nc1ccn([C@@H]2O[C@H](COP(=O)(O)OP(=O)(O)OP(=O)(O)O)[C@H]3OC4(O[C@H]32)C([N+](=O)[O-])=CC(=[N+]([O-])O)C=C4[N+](=O)[O-])c(=O)n1 (some centres unmarked) [TNP-CTP, 2′,3′-O-trinitrophenyl-cytidine-5′-triphosphate]",relative fluorescence (RU),[2],1.16 ± 0.06 RU
"300-bp parS, one-end biotin",Kd,[1],271 nM
B1,fold enhancement of dimerization against wild-type ScParB,[3],≤ 3 fold
B2,fold enhancement of dimerization against wild-type ScParB,[4],≤ 3 fold
